# Experimental data reported in PMC2995173.
# Molecular target: HA-Rad18 S-Box-A (human) (UniProt Q9NS91)
# Experiment: co-IP
substance,measurement,value
DNA Polymerase eta (Polη) (from UniProt Q9Y253 1-713) (natural protein),percent reduction of association relative to Rad18 WT (UV-treated cells),> 80%
